The values below come from patent publication US20080070264A1, “Intracellular Signaling-Induced Ret-Independent Gdnf Receptor-Effected Morphological Changes” (JPMORGAN CHASE BANK N.A., priority 2003, published 2008).

Experiment [1] concerns GFRα1-expressing, RET-deficient MDCK cells. Description: Boyden chamber cell migration and chemotaxis assay. It is filed as cell-based, dog. The method, then:
(§1) FIG. 3A: In Boyden chamber chemotaxis assays, mock-transfected, GFRα1-expressing and RET/GFRα1-expressing cells were exposed to GDNF, and wild-type MDCK to HGF. The number of cells was counted as described in Materials and Methods. +/+=GDNF at 100 ng/ml or HGF at 50 ng/ml was added to both chambers to assay chemokinesis. Each result represents the mean±SEM (n=3). For each case, p<0.001.
(§2) 5×10^4 MDCK cells (GFRα1-, RET/GFRα1-expressing and mock transfected) were suspended in 300 µl of MEM with 10% FCS and seeded into 24-well cell culture inserts with the filters (Boyden chambers), pore size 8 μm (Falcon). The assay was done as described (Tang et al., 1998). Briefly, GDNF or HGF was added to the upper, or both the upper and lower chambers at the marked concentrations. After 48 h incubation, non-migrated cells on the upper surface of the filters were scrapped. Membranes with the cells on the lower surface were washed with PBS, fixed by 3% glutaraldehyde in PBS, stained with May-Grünwald Giemsa (MGG) solution, dehydrated and mounted on the slides. Cells in eight fields of each membrane were counted under the light microscope (Magnification=100×). The average and standard error of the mean were calculated. Statistical significance of the differences was estimated by t-test.
(§3) Guided migration of cells towards a chemoattractant is referred to as chemotaxis, whereas enhanced cellular motility is called chemokinesis. Chemotaxis can be tested in the Boyden dual chamber assay by adding the test substance to the lower chamber only, and chemokinesis by adding test substance to both upper and lower chambers. […] Similarly, the chemotactic migration of RET/GFRα1co-expressing MDCK cells is stimulated by GDNF in the presence of soluble GFRα1 (Tang et al., 1998).

For experiment [2], the system named is RET/GFRα1-expressing MDCK cells. In words: Boyden chamber cell migration and chemotaxis assay. It is filed as cell-based, dog. The method, then: as §1, §2, §3
In experiment [3] the test system is GFRα1-expressing, RET deficient MDCK cells. In words: Chemoattraction assay on collagen matrix with soaked agarose beads. It is filed as cell-based, dog. The following applies: beads soaked in GDNF 10 ng/μl; collagen I; 3 days. The source says: (§4) FIG. 3B: Chemoattraction assay on collagen matrix. Only RET/GFRα1-expressing cells migrate towards GDNF-soaked agarose beads. BSA-soaked agarose beads were used as negative controls. Agarose beads are denoted by white circles. Note that mock transfected, GFRα1-expressing and RET/GFRα1-expressing cells form clusters of adherent cells (denoted by arrowhead) with BSA-soaked beads after 3 days, whereas RET/GFRα1 cells migrating towards GDNF bead are dissociated.
(§5) 3.5 cm dishes were coated with collagen I solution and 20,000 cells were seeded on the coated dish. GDNF-soaked agarose beads, prepared as described (Sainio et al., 1997), were put on the gel before it solidified. Cells around the beads were photographed daily.
(§6) In another chemotaxis assay, RET/GFRα1-, GFRα1- and mock-transfected MDCK cells were seeded on culture dishes coated with collagen I. Agarose beads were soaked in GDNF (10 ng/μl) or 1% BSA. A bead was placed on top of the soft collagen, and cells were monitored for 3 days.

Experiment [4] deals with RET/GFRα1-expressing MDCK cells. The description is as above. The experiment is classed as cell-based, dog. Conditions: beads soaked in GDNF 10 ng/μl; collagen I; 3 days.
Source text: as §4, §5, §6

Experiment [5] has as its system mock-transfected MDCK cells. Described as above. The experiment is classed as cell-based, dog. The following applies: beads soaked in GDNF 10 ng/μl; collagen I; 3 days.
Source text: as §4, §5, §6

Experiment [6] concerns MET. Description: MET phosphorylation in SHEP neuroblastoma cells. It is filed as cell-based, human. Conditions: GDNF 0.1 pg/ml; SHEP cells express GFRα1 but not RET; data not shown. The method, then:
FIG. 7B: SHEP cells were grown with GDNF (10 ng/ml (lanes 2-4) or 5 pg/ml (lanes 5-7)) or HGF (10 ng/ml (lanes 8-9)) in the presence of PP2 (1 μM (lanes 3 and 6) and 10 μM (lanes 4 and 7)). To exclude a possible cytotoxic effect of the solvent, DMSO was added to the controls. […] The numbers below the lane indicate the fold of induction of MET tyrosine kinase. The results are representative of three independent experiments.
To detect MET activation, GFRα1- and RET/GFRα1-expressing MDCK or SHEP cells were starved overnight in MEM or RPMI 1640 with 1% FCS, respectively, and in serum-free medium for 2 h prior the induction. After 15 min incubation at 37° C. with GDNF (at indicated concentrations) or with 50 ng/ml HGF, cells were lysed as described. Cleared cell lysates were incubated with anti-MET antibodies (Santa Cruz Biotechnologies, Inc.) overnight at 4° C. Immunoprecipitates were collected with protein A-SEPHAROSE (Amersham Pharmacia Biotech), washed, separated by SDS-PAGE and transferred to HYBOND-ECL membranes. Membranes were immunoblotted with anti-phospho-tyrosine antibodies (Upstate Group Inc.) or anti-MET antibodies.
For all experiments, densitometry and quantifications were performed using TINA 2.0 program (Raytest, Straubenhardt, Germany).
For the inhibition of MET, and Src activation, SHEP or GFRα1- and RET/GFRα1-expressing MDCK cells were starved as described above. 1 or […] of the inhibitor PP2 (Calbiochem) was added 30 min before induction by GDNF or HGF. DMSO (dimethyl sulfoxide) was added to the positive controls together with GDNF or HGF.

The test system of experiment [7] is MET. Description: MET phosphorylation in Neuro-2A neuroblastoma cells. It is filed as cell-based.
The subject of experiment [8] is MET. Description: MET activation in GFRα1-transfected NIH 3T3 fibroblasts. The experiment is classed as cell-based.
The mark [9] stands for this setting: GDNF 100 ng/ml added to both chambers.

B1: GDNF: recombinant glial cell line-derived neurotrophic factor from Cephalon Inc. (baculovirus-infected insect cells) or R&D Systems, Inc. (mouse myeloma NSO) (protein, UniProt P39905 78-211, looked up)
Glial cell line-derived …: SPDKQMAVLPRRERNRQAAAANPENSRGKGRRGQRGKNRGCVLTAIHLNVTDLGLGYETKEELIFRYCSGSCDAAETTYDKILKNLSRNRRLVSDKVGQACCRPIAFDDDLSFLDDNLVYHILRKHSAKRCGCI
As to B1, the chemotactic response entry in experiment [1] (Boyden chamber, 48 h) is “did not demonstrate a chemotactic response”. For the same molecule, in experiment [1] (setting [9]), the “migration with ligand in both chambers (chemokinesis)” value is “only slightly reduced”. Also, the chemotactic migration result in experiment [2] (Boyden chamber, 48 h) is given as “induced chemotactic migration”. The “migration with ligand in both chambers compared to the maximal chemotactic response (chemokinesis)” value in experiment [2] (setting [9]) was “reduced threefold”. Also, the “migration towards soaked agarose bead” value in experiment [3] is listed as “Neither GFRα1-expressing, RET deficient cells nor mock-transfected cells, however, were attracted”; in experiment [4], “actively migrated towards the source of GDNF”; in experiment [5] it was “Neither GFRα1-expressing, RET deficient cells nor mock-transfected cells, however, were attracted”. Besides, the MET phosphorylation entry is “induced rapid MET phosphorylation” in experiment [6] and “induced MET phosphorylation” in experiment [7]. The MET activation entry in experiment [8] is given as “takes place”.
